Biological target: T1, linear CGQKLVG-conjugated-BSA
T1 sequence (peptide, conjugated to BSA): CGQKLVG
Test: SPR direct binding (MASS-1), linear peptide-BSA immobilised, supernatant flowed

B1: 305-61 (7E9) (antibody, mouse IgG3, V domains shown)
VH: QVQLQQSGAELVRPGASVTLSCKASGYTFTDYEMHWVKQTPVHGLEWIGAIDPETGDTAYNQEFKGKATLTADKSSSTAYMELRSLTSEDSAVYYCTSPIYYDYDWFAYWGHGTLVTVSA
VL: DIVMSQSPSSLAVSAGEKVTMSCKSSQSLLNNRTRKNYLAWYQQKPGQSPKLLIYWASTRESGVPDRFTGSGSGTDFTLTISSVQAEDLAVYYCKQSYNLRTFGGGTKLEIKR
- binding response (RU): 7.7 RU
